According to article PMC7211019, “Par complex cluster formation mediated by phase separation” (Nature Communications, 2020):
Ends that are not written are not given here.

B1: FITC-labeled Par6β PBM peptide (peptide)
peptide: LEEDGTIITL
modifications: also: FITC label, position not given here
notes: source: synthetic peptide (Phtdpeptides)
B2: Par3 PDZ3 G600,602 A (domain or fragment, rat)
chain: GTREFLTFEVPLNDSGSAALAVSVKGNRSKENHADLGIFVKSIINGGAASKDGRLRVNDQLIAVNGESLLGKANQEAMETLRRSMSTEGNKRGMIQLIVARRIS
notes: Par3, rat, third PDZ domain with G600A and G602A; source: E. coli BL21 (DE3) or Rosetta, purified (Ni2+-NTA, SEC)

How the values were obtained:
Par3 PDZ3 = target: T1, Par3 PDZ3 (rat, UniProt Q9Z340 582-685); experiment: fluorescence polarisation; FITC-labeled peptide (~1 μM) titrated with Par3 PDZ domains, 25 °C, buffer A (50 mM Tris pH 8.0, 100 mM NaCl, 1 mM EDTA, 1 mM DTT); settings: both partners purified
T1 construct: Par3, rat, third PDZ domain; Cloned into pGEX-6P-1 or a modified pET32a vector; also called rat Par3 PDZ3; source: E. coli BL21 (DE3) or Rosetta, purified (Ni2+-NTA, SEC)
T1 sequence (Q9Z340 582-685): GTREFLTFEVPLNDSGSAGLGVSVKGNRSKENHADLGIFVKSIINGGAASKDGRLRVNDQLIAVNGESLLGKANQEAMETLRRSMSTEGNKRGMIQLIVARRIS

[1] = target: B1; experiment: as above; settings: both partners purified

Binder	Kd (Par3 PDZ3)	fold weakening against wild-type Par3 PDZ3 [1]
B1	~1000 nM	–
B2	–	~20 fold
